The text below walks through data of the NTF2 design screens of Basanta et al. (2020).

This series is described as follows: protease stability score; higher = more stable; yeast display proteolysis, trypsin and chymotrypsin.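 Further: relative to predicted unfolded state with 0 unfolded-like and 1 meaning tenfold more protease.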
The sequence “SEEERDLKEEADRFLDHVRTGDEDTLRDLIDPNVKLRVDQGDKDIELHGREEVIKFLVHMRIHHVKLNNFRIQGNKIIHDIRVDGTINGVRRDRREHLILHIVDGKIKIVEIRVE” had a protease stability score of 1.28.

In turn, “SEEERDLREALEEHKRTLQTGDEELWNKLFDPHARSDINGVEFHGMEDISRHIYKFFIDFGFKHVRFKHVELYGDKLVMRGSLNINGVDLDIEIISRKIDGRWLIHHWIIR” gave a protease stability score of 0.859.

Take “SEEERDMKEWLRLHVEALRTGDEHHLRHLMDPHTRIQVGDKEIHGMDEIARHVREIRQHVEIRVHHVEIIGDKIIMDVELRLIVHFDGKTFDIKTRFLLHIWKVNGRWILKSVHIE”: the protease stability score came out at 1.21.

Sequence “SEEERDTIEFARLWLENYLTGDEETMKELADPRTLSTFRFENHHLHLHGMHLHFTWLHQIRIRHFQPREVSVVNGKTTIDGEYHGEVGDKSHTTRVIIRLEIVNGKIKSVEIEVK” came in with a protease stability score of 1.07.

On to “SEEERDVKEVLKLIFEHFLTGDWDWLSEMMDPHARSDINGVERHGRDDLKEMYEAIIRKLGADHIRVDTVRVDLFDGRLIVEIHTRNHVGDKEFRVINIFIMRKINGRWHVESVLLHIE”, for which the protease stability score was 1.56.

For “SEEERDVRHVFEVFERSMNTGDEKKIEDRLDPNVRIIIGDKRVHGMHWVSKVIVEMRTHFILRRIRIIGDKADIDGELELRAEGHHIHTHVIIVVHKINGRWYIEEIEIR”, the protease stability score stood at 1.69.

In turn, “SEEEREAQTFYEEWRENFRTGDFDRLHELMDPNARIHQGDKLIIGRQLLEHWRHRFKNIRVDFDLKHIEVQGEKIILRLHFEISIDGRTEHYDMIMIVHKVDGVWIVKSFTIK” registered a protease stability score of 1.43.

With “SEEEREDEEMFRKLWEAYKTGDEKTLSELVDPNARLRFENREFVGRESIKEFYRRIREKFKGIRIEDVHLRDRKEQGEFIHIDIEINRFVGDKYENVKVEIVLLKFDGRWIIHEIRIK”, the protease stability score was 2.69.

The sequence “SEEEREIREIMKRFVQSFYTGDEHSLKKLLDPNVRHEFNGKEEHGWHRVWEDLAFFLRHIRIKHVVLRDVRVQGDKVHAHVEIHEEWDGRERDVEVHMRLEIVDGVVKSVKIEIQ” displayed a protease stability score of 1.43.

“SEEERESEEFWKHLRDVTRTGDFDSLSKLVDPEVRLEWNGRHFIGREHLAELVIDMLNRIDHVELRLHSYRLQGNYLHLRTILIIRINGQQITHDTRITFIKVDGRWIIESKHVH”: the protease stability score came to 0.869.

In the case of “SEEERESKEATKLHLDALRTGNEELLRHLFDPDVKVDVNGKHLHGWKLLTEVLQRMGVKHVELTDFRVYDGRIDLREKWDVDGKEIEVFIHARKFNGQWHTESIHIK”, the protease stability score amounted to 1.15.

As to “SEEERETKLMDEIYQRLFKTGDEHKFLRLADPHAKFHFDGREDHGMHNSTRIWKKLNDILGLDNIRFHVRDWTVFDGVAHVDGKLVINGKEIEVKLHVVVVNGRVKSVSIEHE”, the protease stability score was 0.924.

In turn, “SEEERETRKIFEDLLKTMETGDWRHLHRLIDPNARLIVNGQEFHGREDLIRLLEQLRIRSMRITDVRNQGNKSHVDGTVEGEWNGRTDNNRTEVHLVVVDGVLKHVEFHLH” came in with a protease stability score of 1.47.

In turn, “SEEERFVEEMLRHFLTNFLTGDWDKVAKLADPDTRSLIGDKHSHGRERVIDVLTYVVEEWRWKEFRVHRTTSIGEKAHSDTETDGNYNGVDVRSRSYIHFEVVNGRMSQIHLIFV” had a protease stability score of 0.694.

For the sequence “SEEERHIKEFTRRLLHVFITGDEHELKELFDPNTRSIFNGVDVHGWKEITRFIREIREKEVRIRDVKVFNGRVHLEGHSNMEWNGQERRSDVEMHFDVINGQVHEIEIRIR”, the protease stability score amounted to 1.17.

On to “SEEERHSREMMKLYYKFLETGDEEKFLSLADPDVRIVFNGRDYHGWKDMEKLFHRLLKELGVDHFHIEHVRIDIIDGVAFAFFEVSYNIDGKSLHMHYRFYVKKIDGKWHVRWIHLEVK”, for which the protease stability score is 1.59.

With “SEEERHWKEFIRMMFEALKTGDETELEKNIDPNVRVHINGQELHGRETASRFMQKHEEDMGFKHFHIDHIHFQGDKIHVHGILWVNGRDIEIHIHLVIVNGRVSLVSRDIREH”, the protease stability score turned out to be 0.247.

“SEEERILEEILRRLLRLLATGDWEDLHKLFDPTVRIVFNGQLLHGWHEFIRTMHQLWVDRIRVERVRFQGDFQHYETRNDITINGVRIETESRVHVKIVDGRIKYFEFELT” returned a protease stability score of 2.53.

The sequence “SEEERIMEEVSNLILDILYTGDWRRFLKLADPRTRSEINGVELIGMENHFKMWEHWRIKHIDMHSHESQGDKAIAHTRHRGEINGRERDVDTNLFVLVVNGRLKQIRLEFV” came in with a protease stability score of 1.25.

In the case of “SEEERLAEHYYRETIELITTGDWRKLLELFDPDARLVIGDKTYHGMDTIIKIWEELRMHIRDVHFHHVSVIDGRIHLDVVVDVTKNIDGVRIRTTHRVHIIMEKIDGKWFVREIRIK”, the protease stability score came to 2.38.

For “SEEERLAREISKELVEILLTGDEDRLLELADPDVRHILLFNGRDDDQHGRENMSRAEKLFREWLGVKHVDVTHVEVQGDKIHNDTVVDINGVRFEFRIIWVVVNGRVKVWRVEMR”, the protease stability score turned out to be 1.52.

Consider “SEEERLARVFVELLLEISKTGDERMWKWLADPHYRLIIDGVRFHGRETLEREFKRFDYIHDVRLNDMIINGEHLILDVRVHGQQGDKEINIRTFLVVLKVDGVWVLKSVHIH”, for which the protease stability score amounted to 1.49.

“SEEERLIIEVMKDFEHSHRTGDWRRILKNLDPNTRHEFNGVEFHGMEEVVRFWIELKDEIRIHHIEIESINHVGDKAHMNVRRDTEVNGKREDVRVQVDLRVINGRIKSVIIRIE” had a protease stability score of 0.844.

The sequence “SEEERLLHEFWERLQHSHKTGNEEEYRKNIDPHARLDIDGREMHGWENFFHFFVEMRVHDLRIEDYRVQGDKVIVHTRVDGIVNGVRTEIHSELIIRKIDGRWFIEAMTIK” returned a protease stability score of 1.07.

Regarding “SEEERLMEEAMKEFVNNSLTGDFHKMSNLADPNTRIEIDGRELHGRELAEELWERIKNLTVEIKDYKVQGDKVIIYVKIHVNGREKDVILYVQKINGRWLLRHVEVR”, the protease stability score came to 1.34.

Take “SEEERLTEEFLTKFEEILETGDEELLWRLIDPHARTLFDGQEFHGREDFVMIFDELVRHAGFDVRHIHSIHVQGDKIEVRSTMVVNGRNFEIRLHLRKINGRWHIEEIEIR”: the protease stability score is 2.7.

For the sequence “SEEERLTRELVEILLELFKTGDEDKWKEMVDPNVRVELIQGEKFIIDHGWESFFRFLLELGVDHREDKRKDAVNGRVHLTGQIDINGRRIDIHLDIDVVNGKVKSIRVELR”, the protease stability score was found to be 0.933.

As for “SEEERLYEHAWKLYIHDFITGDEKSHSRLADPHTQMIIGDKLLIGREEFVKWMKHLLDQVKNITVEHVKIRHEHYQGDKAHIDVEEEIHFNGQRHKRRVILTILKVNGRWSIESVEYT”, the protease stability score was 0.898.

“SEEERMTHEATRDLIETILTGDENILRKLADPNMIINVRQGEKDIRIHGRHDYIRWVKLLGVDHVQVRDIHFQGDKATIHLEVEVNGRSINMIIIMRKVDGRWLITETREHHL” showed a protease stability score of 1.09.

Turning to “SEEERQLHEFAELIVHDLLTGNFELLSSLLDPHARMEINGKRFHGWTQILDILHRIWLHLRIRDRQVRRVEVYNGRINSRIEVDGEINGRRISLDELLILVVVDGRIRSESIHFE”, the protease stability score came out at 1.03.

For the sequence “SEEERQSREFFKKWIHYMLTGDEHQIHTLADPNVRVVINGKEHHGRERLYELVLEFHHRLQNATSRVHTQDSVVIDGRLELHMELRVHQGDKEDTFQIRQLVVKIDGVWHSKSFEVE”, the protease stability score was found to be 1.61.

The sequence “SEEERRDEHLMRLWVHLLLTGDEDTLKKLADPDARLVVGDKTFHGMEEVSRIMHEFLRRLGIKHFHDLDFKHVRHINGVAHFNGRLHGIQGEFERNTNIEFVVVVVDGRIKSSEIHWH” registered a protease stability score of 1.41.

In the case of “SEEERRYELFLNLLREIMETGDEHRRSNLMDPHVRFDWNGVEFHGREMLEFIIERLHKEARLESYEIHRVTLIGDKIELRVREKRRVGNKIIEWDVIIIVRKIDGKWTIEEVEIR”, the protease stability score came out at 1.63.

As for “SEEERSAIEFITRWIQAFETGDEDTLHKLADPNMKIWINGRELIGMQRFIRELQEEMTKRGVRIHIRIEDMRVFNGRLHTDGQFKLEVNGVDVFTTTYLLINKINGKWILEHVNIN”, the protease stability score was determined as 1.3.

Sequence “SEEERTAEKLMRDWLKNWMTGNEEIIKELADPNVKLLVGDKEMHGMEELSRFLKELRIHDSDVRDIRLKSINGVLHIESDGRLKGEFNGQHIDTRTVVRLDVHKFDGRWHLKSIEVEIR” gave a protease stability score of 1.95.

In turn, “SEEERTQTLAMKIIWDVLLTGDWKELFDNMDPHARMEINGRKFHGREEIIRHLRELHNKLGIDRVESHLHSVHYVDGVIHVDIHLHYNGKDERIEIIAMKYNGRWTLTEVNYREE” displayed a protease stability score of 2.13.

In the case of “SEEERVAIEHMRWVIRALLTGDEELLRHLFDPSTRFDFDGQHRIGMEDLVRFWRHLRVRRFEIEDERVHFQGDKIEARTEGRIQGDINGKNVEREIRVILIVMKIDGKWIIRIISHEVD”, the protease stability score was determined as 1.63.

“SEEERVAKHVSHNLFESLKTGNEEEIEKFFDPNVKVQVGEFEHHGREAVLFWFHEFGIKHIHFHEERVQGDKMHSHLNLIVNGRHISHHIHFHKINGRWHITHQRFH”: the protease stability score turned out to be 0.828.

Sequence “SEEERVLREAIKLLEHLLRTGDEKSFHELFDPDVKIEIGDKEVHGRERWVELYRTWGLENVESHVRVDDERIQGDKMEMDMQLDLRYDGRIDTTKVIILATKINGRWKLEHFEEE” had a protease stability score of 0.028.

The sequence “SEEERYHDKALKILKESVDTGDPHLLSRYMDPNDRLDINGREIHGMEILLKELLHIMERADHIRIELNDIKMQGDFLELDGILIIHQGEYTLQLRVKLVSLKVDGRWLHHSIEVK” yielded a protease stability score of 0.171.

The sequence “SEEESKERHNEKFLKTVHKTGDEHSWRKMLDPDVRVEYGDKHDHGWEAIERFRKELGIERIHIDDRKIRHNEVVNGQVYLHEELVGTVNGVHVQVKMLIIFHKVDGKWHVELVQIN” yielded a protease stability score of 0.559.

In turn, “SEEETDAKIAYHLEYELLKTGDEKMIHENLDPDARFISDVNGVEHRDHGRENFSRSMSEWLKRFGVDHMDIRHVRFFNGKIDMEVEINVNGVRIDLHLHSHKINGQWIITRVDIRID” came in with a protease stability score of 1.24.

“SEEETFTEIAVKLLMHLWNTGDENELMRNFDPNARMDINGQEYHGREDIVRRLDEFKKRLGVERVHFELNDIRPVNGRADVDGIVIFNGQKLRVRHIVWKINGRWYLEEFEVR” had a protease stability score of 1.44.

“SEEETHVKEAVKRSVDFLETGDERLFRELFDPNVRLIVNVGNKRVELHGWEEVVRWLREARLHRVILRTIRIQGDKAEVEGDVDGEINGRHDLHIIEWHFIVINGRFHSVSVRIE” displayed a protease stability score of 1.05.

The sequence “SEEETMERLSIEITLEMLKTGDETEILKNMDPDARVIVGDKVYHGREHVIELWRRLGVKHSEPKHVYVINGRVHIDMEVHVDGKRFHVHIISHKINGQWSITNVKLEKE” showed a protease stability score of 2.02.

In turn, “SEEETRLEKYLRILLEMWKTGNEEWMFKYADPDARLQVGDKEFHGREHIMKFLKDWLDKAGVKHEEDRREEYIGDKLRVDSERNVNGVENRVILIFVVINGRYREFIIIIR” returned a protease stability score of 1.47.

Take “SEEEVLAHKFLRTWVESMNTGDEKSIMRLFDPNVRYHVGDKEIHGMDEHREEFTELLHRVKNVRFFFDEHDMRNIDGRIEMKGRLEIIQGEYHESTTVELIITKVNGQWVWESVFIK”: the protease stability score was found to be 0.488.
